{
  "source": "paper PMC8826744",
  "about": "(2022)",
  "binders": {"B1": {"name": "farletuzumab-FuG1 (antibody, V domains shown)", "VH": "EVQLVESGGGVVQPGRSLRLSCSASGFTFSGYGLSWVRQAPGKGLEWVAMISSGGSYTYYADSVKGRFAISRDNAKNTLFLQMDSLRPEDTGVYFCARHGDDPAWFAYWGQGTPVTVSS", "VL": "DIQLTQSPSSLSASVGDRVTITCSVSSSISSNNLHWYQQKPGKAPKPWIYGTSNLASGVPSRFSGSGSGTDYTFTISSLQPEDIATYYCQQWSSYPYMYTFGQGTKVEIK"}, "B2": {"name": "farletuzumab-cFuG1 (antibody, V domains shown)", "VH": "B1 VH", "VL": "B1 VL"}},
  "key": {"[1]": {"target": "T1, recombinant furin, biotinylated (UniProt P09958 27-794, biotin)", "T1 sequence (P09958 108-715)": "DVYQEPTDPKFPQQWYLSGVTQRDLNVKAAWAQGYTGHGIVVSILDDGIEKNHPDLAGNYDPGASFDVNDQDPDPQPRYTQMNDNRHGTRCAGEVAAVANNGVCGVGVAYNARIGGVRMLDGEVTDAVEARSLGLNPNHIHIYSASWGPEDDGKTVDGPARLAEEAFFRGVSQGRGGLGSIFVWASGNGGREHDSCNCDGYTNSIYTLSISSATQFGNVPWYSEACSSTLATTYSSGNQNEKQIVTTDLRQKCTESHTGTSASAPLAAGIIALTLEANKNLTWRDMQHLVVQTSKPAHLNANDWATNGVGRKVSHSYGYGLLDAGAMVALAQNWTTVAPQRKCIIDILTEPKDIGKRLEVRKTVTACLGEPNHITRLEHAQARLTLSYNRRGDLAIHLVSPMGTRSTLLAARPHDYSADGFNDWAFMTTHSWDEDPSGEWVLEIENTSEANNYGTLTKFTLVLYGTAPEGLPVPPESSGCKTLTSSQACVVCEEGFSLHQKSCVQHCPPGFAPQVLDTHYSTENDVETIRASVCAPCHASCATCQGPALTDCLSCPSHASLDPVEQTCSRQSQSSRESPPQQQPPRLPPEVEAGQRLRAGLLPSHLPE", "experiment": "BLI"}, "[2]": {"target": "T1, recombinant furin, biotinylated", "experiment": "BLI", "remark": "listed apart in the source"}},
  "data": [
    {"binder": "B1", "values": [
      {"measurement": "koff", "setting": "[1]", "value": "8.65e-05", "unit": "s⁻¹"},
      {"measurement": "Kd", "setting": "[2]", "value": 33, "unit": "nM"}
    ]},
    {"binder": "B2", "values": [
      {"measurement": "koff", "setting": "[1]", "value": 0.000312, "unit": "s⁻¹"},
      {"measurement": "Kd", "setting": "[2]", "value": 7.5, "unit": "nM"}
    ]}
  ]
}
